From patent US20220018856A1
Each block holds one substance with its values, some of them ahead of it.

What was measured:
[1] = target: tau protein of the calibrator reagent for measuring total tau protein (LUMIPULSE G Total Tau Calibrators set, Fujirebio) (UniProt P10636); assay: sandwich CLEIA, capture on AT120 magnetic particles, SA-ALP detection; calibrator 420 pg/mL
[2] = target: tau protein of the calibrator reagent for measuring total tau protein (LUMIPULSE G Total Tau Calibrators set, Fujirebio) (UniProt P10636); assay: sandwich CLEIA, capture on AT120 magnetic particles, SA-ALP detection; calibrator 150 pg/mL
[3] = target: tau protein in samples obtained by diluting a cerebrospinal fluid specimen with buffer (UniProt P10636); assay: sandwich CLEIA, AT120 capture, SA-ALP detection; diluted cerebrospinal fluid sample LoQ 1, mean of n=10
[4] = target: tau protein in samples obtained by diluting a cerebrospinal fluid specimen with buffer (UniProt P10636); assay: sandwich CLEIA, AT120 capture, SA-ALP detection; diluted cerebrospinal fluid sample LoQ 4, mean of n=10
[5] = target: tau protein of the calibrator reagent for measuring total tau protein (LUMIPULSE G Total Tau Calibrators set, Fujirebio) (UniProt P10636); assay: sandwich CLEIA, capture on AT120 magnetic particles, SA-ALP detection; calibrator 900 pg/mL
[6] = target: tau protein in samples obtained by diluting a cerebrospinal fluid specimen with buffer (UniProt P10636); assay: sandwich CLEIA, AT120 capture, SA-ALP detection; diluted cerebrospinal fluid sample LoB, mean of n=10
[7] = target: tau protein of the calibrator reagent for measuring total tau protein (LUMIPULSE G Total Tau Calibrators set, Fujirebio) (UniProt P10636); assay: sandwich CLEIA, capture on AT120 magnetic particles, SA-ALP detection; calibrator 2250 pg/mL
[8] = target: tau protein of the calibrator reagent for measuring total tau protein (LUMIPULSE G Total Tau Calibrators set, Fujirebio) (UniProt P10636); assay: sandwich CLEIA, capture on AT120 magnetic particles, SA-ALP detection; calibrator 60 pg/mL
[9] = target: tau protein in samples obtained by diluting a cerebrospinal fluid specimen with buffer (UniProt P10636); assay: sandwich CLEIA, AT120 capture, SA-ALP detection; diluted cerebrospinal fluid sample LoQ 3, mean of n=10
[10] = target: tau protein of the calibrator reagent for measuring total tau protein (LUMIPULSE G Total Tau Calibrators set, Fujirebio) (UniProt P10636); assay: sandwich CLEIA, AT120 capture, SA-ALP detection; calculated count at 600 pg/mL over count at 0 pg/mL
[11] = target: tau protein in samples obtained by diluting a cerebrospinal fluid specimen with buffer (UniProt P10636); assay: sandwich CLEIA, AT120 capture, SA-ALP detection; diluted cerebrospinal fluid sample LoQ 5, mean of n=10
[12] = target: tau protein in samples obtained by diluting a cerebrospinal fluid specimen with buffer (UniProt P10636); assay: sandwich CLEIA, AT120 capture, SA-ALP detection; diluted cerebrospinal fluid sample LoQ 2, mean of n=10
[13] = target: tau protein of the calibrator reagent for measuring total tau protein (LUMIPULSE G Total Tau Calibrators set, Fujirebio) (UniProt P10636); assay: sandwich CLEIA, capture on AT120 magnetic particles, SA-ALP detection; calibrator 0 pg/mL (blank)
[14] = target: tau protein of the calibrator reagent for measuring total tau protein (LUMIPULSE G Total Tau Calibrators set, Fujirebio) (UniProt P10636); assay: one-step sandwich CLEIA (Lumipulse G), capture on AT120 magnetic particles; calibrator 213 pg/mL
[15] = target: tau protein of the calibrator reagent for measuring total tau protein (LUMIPULSE G Total Tau Calibrators set, Fujirebio) (UniProt P10636); assay: sandwich CLEIA, AT120 capture; calculated count at 600 pg/mL over count at 0 pg/mL
[16] = target: tau protein of the calibrator reagent for measuring total tau protein (LUMIPULSE G Total Tau Calibrators set, Fujirebio) (UniProt P10636); assay: sandwich CLEIA, AT120 capture; S/N (600/0 pg/mL) against BT2-bio + HT7-bio with SA-ALP
[17] = target: phosphorylated tau peptide antigen in which threonine at position 181 in tau protein had been phosphorylated; assay: sandwich CLEIA, AT270 capture; S/N (4.5 pM/0 pM) against the ALP-labeled single antibody mixtures
[18] = target: tau protein in samples obtained by diluting a cerebrospinal fluid specimen with buffer (UniProt P10636); assay: one-step sandwich CLEIA, AT120 capture; diluted cerebrospinal fluid sample LoQ 1, mean of n=10
[19] = target: tau protein of the calibrator reagent for measuring total tau protein (LUMIPULSE G Total Tau Calibrators set, Fujirebio) (UniProt P10636); assay: one-step sandwich CLEIA (Lumipulse G), capture on AT120 magnetic particles; calibrator 1037 pg/mL
[20] = target: phosphorylated tau peptide antigen in which threonine at position 181 in tau protein had been phosphorylated; assay: sandwich CLEIA, AT270 capture; count at 4.5 pM over count at 0 pM
[21] = target: phosphorylated tau peptide antigen in which threonine at position 181 in tau protein had been phosphorylated; assay: sandwich CLEIA (Lumipulse G), capture on AT270 magnetic particles; antigen 18 pM
[22] = target: tau protein of the calibrator reagent for measuring total tau protein (LUMIPULSE G Total Tau Calibrators set, Fujirebio) (UniProt P10636); assay: one-step sandwich CLEIA (Lumipulse G), capture on AT120 magnetic particles; calibrator 667 pg/mL
[23] = target: tau protein in samples obtained by diluting a cerebrospinal fluid specimen with buffer (UniProt P10636); assay: one-step sandwich CLEIA, AT120 capture; diluted cerebrospinal fluid sample LoQ 5, mean of n=10
[24] = target: tau protein in samples obtained by diluting a cerebrospinal fluid specimen with buffer (UniProt P10636); assay: one-step sandwich CLEIA, AT120 capture; diluted cerebrospinal fluid sample LoB, mean of n=10
[25] = target: tau protein in samples obtained by diluting a cerebrospinal fluid specimen with buffer (UniProt P10636); assay: one-step sandwich CLEIA, AT120 capture; diluted cerebrospinal fluid sample LoQ 2, mean of n=10
[26] = target: phosphorylated tau peptide antigen in which threonine at position 181 in tau protein had been phosphorylated; assay: sandwich CLEIA (Lumipulse G), capture on AT270 magnetic particles; antigen 150 pM
[27] = target: phosphorylated tau peptide antigen in which threonine at position 181 in tau protein had been phosphorylated; assay: sandwich CLEIA (Lumipulse G), capture on AT270 magnetic particles; antigen 36 pM
[28] = target: tau protein of the calibrator reagent for measuring total tau protein (LUMIPULSE G Total Tau Calibrators set, Fujirebio) (UniProt P10636); assay: one-step sandwich CLEIA (Lumipulse G), capture on AT120 magnetic particles; calibrator 0 pg/mL (blank)
[29] = target: tau protein in samples obtained by diluting a cerebrospinal fluid specimen with buffer (UniProt P10636); assay: one-step sandwich CLEIA, AT120 capture; diluted cerebrospinal fluid sample LoQ 4, mean of n=10
[30] = target: tau protein of the calibrator reagent for measuring total tau protein (LUMIPULSE G Total Tau Calibrators set, Fujirebio) (UniProt P10636); assay: one-step sandwich CLEIA (Lumipulse G), capture on AT120 magnetic particles; calibrator 101 pg/mL
[31] = target: tau protein of the calibrator reagent for measuring total tau protein (LUMIPULSE G Total Tau Calibrators set, Fujirebio) (UniProt P10636); assay: one-step sandwich CLEIA (Lumipulse G), capture on AT120 magnetic particles; calibrator 2639 pg/mL
[32] = target: tau protein in samples obtained by diluting a cerebrospinal fluid specimen with buffer (UniProt P10636); assay: one-step sandwich CLEIA, AT120 capture; diluted cerebrospinal fluid sample LoQ 3, mean of n=10
[33] = target: phosphorylated tau peptide antigen in which threonine at position 181 in tau protein had been phosphorylated; assay: sandwich CLEIA (Lumipulse G), capture on AT270 magnetic particles; antigen 72 pM
[34] = target: phosphorylated tau peptide antigen in which threonine at position 181 in tau protein had been phosphorylated; assay: sandwich CLEIA (Lumipulse G), capture on AT270 magnetic particles; antigen 0 pM (blank)
[35] = target: phosphorylated tau peptide antigen in which threonine at position 181 in tau protein had been phosphorylated; assay: sandwich CLEIA (Lumipulse G), capture on AT270 magnetic particles; antigen 9 pM
[36] = target: phosphorylated tau peptide antigen in which threonine at position 181 in tau protein had been phosphorylated; assay: sandwich CLEIA (Lumipulse G), capture on AT270 magnetic particles; antigen 4.5 pM
[37] = target: phosphorylated tau peptide antigen in which threonine at position 181 in tau protein had been phosphorylated; assay: sandwich CLEIA (Lumipulse G), capture on AT270 magnetic particles, ALP-SA label; antigen 200 pg/mL
[38] = target: phosphorylated tau peptide antigen in which threonine at position 181 in tau protein had been phosphorylated; assay: sandwich CLEIA (Lumipulse G), capture on AT270 magnetic particles, ALP-SA label; antigen 400 pg/mL
[39] = target: phosphorylated tau peptide antigen in which threonine at position 181 in tau protein had been phosphorylated; assay: sandwich CLEIA (Lumipulse G), capture on AT270 magnetic particles, ALP-SA label; antigen 40 pg/mL
[40] = target: phosphorylated tau peptide antigen in which threonine at position 181 in tau protein had been phosphorylated; assay: sandwich CLEIA (Lumipulse G), capture on AT270 magnetic particles, ALP-SA label; antigen 100 pg/mL
[41] = target: phosphorylated tau peptide antigen in which threonine at position 181 in tau protein had been phosphorylated; assay: sandwich CLEIA, AT270 capture; S/N (40/0 pg/mL) against the mixture of ALP-labeled single antibodies
[42] = target: phosphorylated tau peptide antigen in which threonine at position 181 in tau protein had been phosphorylated; assay: sandwich CLEIA, AT270 capture; count at 40 pg/mL over count at 0 pg/mL
[43] = target: phosphorylated tau peptide antigen in which threonine at position 181 in tau protein had been phosphorylated; assay: sandwich CLEIA (Lumipulse G), capture on AT270 magnetic particles, ALP-SA label; antigen 0 pg/mL (blank)

Count value [1]: 2670 count
Count value [2]: 817 count
Count value [3]: 455 count
Count value [4]: 694 count
Count value [5]: 7070 count
Count value [6]: 408 count
Count value [7]: 38100 count
Count value [8]: 514 count
Count value [9]: 641 count
S/N (600/0) [10]: 10
Count value [11]: 858 count
Count value [12]: 585 count
Count value [13]: 409 count
Substance: antibody mixture of biotinylated monoclonal antibody BT2 and biotinylated monoclonal antibody HT7, detected with streptavidin-labeled ALP

Count value [14]: 17600 count
S/N (600/0) [15]: 60.6
S/N ratio against the mixture of the labeled antibodies [16]: 6 fold
S/N ratio against the ALP-labeled Fab′ fragment mixture [17]: 6 fold
Count value [18]: 982 count
Count value [19]: 83600 count
S/N (4.5/0) [20]: 71.7
Count value [21]: 153000 count
Count value [22]: 50400 count
Count value [23]: 2380 count
Count value [24]: 728 count
Count value [25]: 1160 count
Count value [26]: 1.35e+06 count
Count value [27]: 297000 count
Count value [28]: 744 count
Count value [29]: 1970 count
Count value [30]: 9280 count
Count value [31]: 211000 count
Count value [32]: 1600 count
Count value [33]: 576000 count
Count value [34]: 595 count
Count value [35]: 73800 count
Count value [36]: 42600 count
Substance: hybrid conjugate labeled with alkaline phosphatase (BT2 Fab′ fragment and HT7 Fab′ fragment coupled to maleimidated ALP)

Count value [37]: 14400 count
Count value [38]: 28700 count
Count value [39]: 3110 count
Count value [40]: 7390 count
S/N ratio against the mixed conjugate reaction solution [41]: 9 fold
S/N (40/0) [42]: 10
Count value [43]: 312 count
Substance: BSA linker hybrid conjugate 1 labeled with ALP (BT2 Fab′ and HT7 Fab′ on maleimidated BSA, biotinylated, with streptavidin-conjugated alkaline phosphatase) (from UniProt P02769 25-607)

Count value [37]: 19300 count
Count value [38]: 37300 count
Count value [39]: 3970 count
Count value [40]: 10100 count
S/N ratio against the mixed conjugate reaction solution [41]: 13 fold
S/N (40/0) [42]: 14.3
Count value [43]: 278 count
Substance: BSA linker hybrid conjugate 2 labeled with ALP (BT2 Fab′ and HT7 Fab′ on biotinylated and maleimidated thiolated BSA, with streptavidin-conjugated alkaline phosphatase) (from UniProt P02769 25-607)
